Publication PMC12052844 (iScience, 2025)

How the values were obtained:
EphA4 receptor on cells = EphA4 receptor on cells (UniProt Q03137); experiment: flow cytometry on cells
[1] = target: T1, full-length wild-type EphB2 on the surface of Expi293F cells (mouse, UniProt P54763-3); experiment: flow cytometry on cells
T1 sequence: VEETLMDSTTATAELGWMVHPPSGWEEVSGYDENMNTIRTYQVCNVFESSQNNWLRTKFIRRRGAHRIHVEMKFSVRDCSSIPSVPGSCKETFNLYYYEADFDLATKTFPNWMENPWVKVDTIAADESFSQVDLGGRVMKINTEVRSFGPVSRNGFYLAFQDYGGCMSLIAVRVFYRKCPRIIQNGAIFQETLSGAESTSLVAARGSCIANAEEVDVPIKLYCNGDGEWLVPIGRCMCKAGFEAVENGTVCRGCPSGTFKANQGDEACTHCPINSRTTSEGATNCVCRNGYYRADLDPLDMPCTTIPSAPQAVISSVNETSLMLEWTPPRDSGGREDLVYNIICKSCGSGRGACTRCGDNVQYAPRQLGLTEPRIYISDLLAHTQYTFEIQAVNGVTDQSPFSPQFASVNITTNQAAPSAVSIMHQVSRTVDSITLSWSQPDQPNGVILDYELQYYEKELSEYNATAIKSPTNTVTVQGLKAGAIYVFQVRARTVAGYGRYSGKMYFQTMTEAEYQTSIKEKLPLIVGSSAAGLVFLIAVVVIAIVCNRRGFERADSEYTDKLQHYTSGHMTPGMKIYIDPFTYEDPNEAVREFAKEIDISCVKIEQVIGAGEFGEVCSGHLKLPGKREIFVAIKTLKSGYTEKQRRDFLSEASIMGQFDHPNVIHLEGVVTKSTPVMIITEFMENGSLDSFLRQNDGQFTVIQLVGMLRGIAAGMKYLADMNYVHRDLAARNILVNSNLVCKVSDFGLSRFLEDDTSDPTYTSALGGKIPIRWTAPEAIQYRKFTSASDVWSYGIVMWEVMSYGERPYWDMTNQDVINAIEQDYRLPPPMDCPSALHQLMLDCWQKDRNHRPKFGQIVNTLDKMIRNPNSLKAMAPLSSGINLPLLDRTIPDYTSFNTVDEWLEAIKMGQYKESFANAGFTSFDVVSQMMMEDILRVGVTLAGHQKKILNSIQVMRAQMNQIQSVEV

EphA4 receptor on cells, sequence (Q03137 20-986): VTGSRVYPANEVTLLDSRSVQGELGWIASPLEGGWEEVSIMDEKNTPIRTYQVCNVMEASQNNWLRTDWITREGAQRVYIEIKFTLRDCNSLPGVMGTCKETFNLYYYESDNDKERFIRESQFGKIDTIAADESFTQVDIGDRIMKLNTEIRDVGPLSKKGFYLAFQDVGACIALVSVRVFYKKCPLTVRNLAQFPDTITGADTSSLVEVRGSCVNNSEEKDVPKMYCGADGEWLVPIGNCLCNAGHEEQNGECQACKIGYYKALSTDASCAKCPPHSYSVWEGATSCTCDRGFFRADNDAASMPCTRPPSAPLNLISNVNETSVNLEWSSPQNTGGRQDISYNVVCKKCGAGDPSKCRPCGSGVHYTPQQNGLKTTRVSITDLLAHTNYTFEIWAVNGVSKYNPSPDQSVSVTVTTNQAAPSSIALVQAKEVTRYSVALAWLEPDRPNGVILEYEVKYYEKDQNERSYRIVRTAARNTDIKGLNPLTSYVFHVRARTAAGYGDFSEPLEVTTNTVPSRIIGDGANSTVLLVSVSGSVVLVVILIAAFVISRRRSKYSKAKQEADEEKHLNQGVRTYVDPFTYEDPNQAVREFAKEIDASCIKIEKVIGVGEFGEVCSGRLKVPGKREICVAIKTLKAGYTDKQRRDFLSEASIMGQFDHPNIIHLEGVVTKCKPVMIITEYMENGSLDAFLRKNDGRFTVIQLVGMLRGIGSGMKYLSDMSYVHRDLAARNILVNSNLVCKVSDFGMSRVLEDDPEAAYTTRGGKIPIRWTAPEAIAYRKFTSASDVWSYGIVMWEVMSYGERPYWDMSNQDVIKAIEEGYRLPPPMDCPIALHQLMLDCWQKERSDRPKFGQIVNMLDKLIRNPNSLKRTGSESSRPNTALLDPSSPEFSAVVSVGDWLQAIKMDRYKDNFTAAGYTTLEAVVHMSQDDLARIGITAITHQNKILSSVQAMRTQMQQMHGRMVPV

Molecule | Kd (EphA4 receptor on cells) [nM] | Kd [1] [nM]
pre-clustered ephrin-B2 (receptor binding domain of murine ephrin-B2, residues 30-170, biotinylated) (from UniProt P52800 30-170) (ligand) | 501 | –
ephrin-B1 (ligand) ATPLAKNLEPVSWSSLNPKFLSGKGLVIYPKIGDKLDIICPRAEAGRPYEYYKLYLVRPEQAAACSTVLDPNVLVTCNKPHQEIRFTIKFQEFSPNYMGLEFKKYHDYYITSTSNGSLEGLENREGGVCRTRTMKIVMKVGQDPNAVTPEQLTTSRPSKESDNTVKTATQAPGRGSQGDSDGKHETVNQEEKSGPGAGGGGSGDSDSFFNSK | – | 6.64
pre-clustered ephrin-B2 (receptor binding domain of murine ephrin-B2, residues 30-170, biotinylated) (ligand, biotin on the Avi tag (BirA)) SIVLEPIYWNSSNSKFLPGQGLVLYPQIGDKLDIICPKVDSKTVGQYEYYKVYMVDKDQADRCTIKKENTPLLNCARPDQDVKFTIKFQEFSPNLWGLEFQKNKDYYIISTSNGSLEGLDNQEGGVCQTRAMKILMKVGQD | – | 3.53
pre-clustered ephrin-A5 (receptor binding domain of murine ephrin-A5, residues 28-164, biotinylated) (ligand, biotin on the Avi tag (BirA)) VADRYAVYWNSSNPRFQRGDYHIDVCINDYLDVFCPHYEDSVPEDKTERYVLYMVNFDGYSACDHTSKGFKRWECNRPHSPNGPLKFSEKFQLFTPFSLGFEFRPGREYFYISSAIPDNGRRSCLKLKVFVRPTNSC | – | 112
